B1: YKL204W 458-471 (peptide)
chain: GLIAHQGPQFPVMG
B2: YKR038C 231-244 (peptide)
chain: FARTLKIPNEPSPG
B3: YOR108W 386-399 (peptide)
chain: GETRWRIPYLPLDP
B4: YHL005C 61-74 (peptide)
chain: FLALFSDPARPFLT
B5: YML005W 159-172 (peptide)
chain: ELLSFLSPGKPSKG
B6: YCR079W 210-223 (peptide)
chain: FLYPYDDPNAPIDE
B7: YDL196W 57-70 (peptide)
chain: FFFFHLSPSIPFWF
B8: YKR041W 168-181 (peptide)
chain: EPATLPLPGTPTLA
B9: YGR018C 23-36 (peptide)
chain: FWKIHLSPPLPSFK
B10: YHR028C 497-510 (peptide)
chain: GLLTYKGPKVPYQK
B11: YGR293C 121-134 (peptide)
chain: FLTVYILPKNPFRV
B12: YEL050C 102-115 (peptide)
chain: GLRWYRSPIYPYLY
B13: YDL117W 176-189 (peptide)
chain: FEESMNNPLPPLPP
B14: YBL088C 1519-1532 (peptide)
chain: FEMVFRHPEQPHMI
B15: YLR131C 69-82 (peptide)
chain: ELRDLDIPLVPSPK
B16: YGR154C 125-138 (peptide)
chain: ELYYLNDPKYPGTK
B17: YBL029C-A 44-57 (peptide)
chain: FFTIWFIPLVPVFW
B18: YLR308W 63-76 (peptide)
chain: EWPGLDPPYIPLDF
B19: YPR184W 1320-1333 (peptide)
chain: FEKRYYVPEDPSQD
B20: YDR390C 147-160 (peptide)
chain: GFDGYMQPIIPGKT
B21: YGL167C 574-587 (peptide)
chain: GLIGMNDPPRPNVK
B22: YFL034W 1020-1033 (peptide)
chain: GESHYKPPSTPKIN
B23: YHR111W 74-87 (peptide)
chain: GAGGLGSPALPYLA
B24: YIL173W 521-534 (peptide)
chain: GEYDLIMPIYPYRL
B25: YEL070W 20-33 (peptide)
chain: FESTLPIPTYPREG
B26: YLR454W 1338-1351 (peptide)
chain: ELRTLFVPLIPSVT
B27: YNL104C 387-400 (peptide)
chain: GETQWRIPYLPLDP
B28: YGR154C 63-76 (peptide)
chain: GARFLPAPHRPEKY
B29: YEL031W 876-889 (peptide)
chain: EPIAHLFPPGPKNP
B30: YER171W 720-733 (peptide)
chain: FLRTMAQPTDPKDQ
B31: YJR031C 942-955 (peptide)
chain: FENLLMEPNLPFFT
B32: YLR149C 637-650 (peptide)
chain: FESFLRPPSTPDLP
B33: YHR199C 84-97 (peptide)
chain: FPKKMGPPQWPFST
B34: YOR267C 107-120 (peptide)
chain: GLHDYTSPASPKQT
B35: YER003C 399-412 (peptide)
chain: GFVFFIAPHLPVDL
B36: YHR033W 57-70 (peptide)
chain: GLDALNIPHKPKQL
B37: YDR159W 429-442 (peptide)
chain: FFQLMQSPSLPLLM
B38: YER032W 46-59 (peptide)
chain: FFPIMSLPVTPVKS
B39: YLR198C 23-36 (peptide)
chain: FPFYLSFPFSPSFP
B40: YPL249C 557-570 (peptide)
chain: GLRELFLPGMPGLM
B41: YJL033W 477-490 (peptide)
chain: FAYSLGLPGAPKIK
B42: YDL172C 53-66 (peptide)
chain: GEIMFPAPPLPIAN
B43: YMR313C 491-504 (peptide)
chain: EPEPLMSPVPPSSA
B44: YKL083W 42-55 (peptide)
chain: FLPVFNLPSNPALF
B45: YDR422C 770-783 (peptide)
chain: FLSRYPVPDLPIYL
B46: YLR193C 22-35 (peptide)
chain: FFNRYPNPYSPHVL
B47: YLR244C 297-310 (peptide)
chain: GEFFHSSPNIPHYA
B48: YER141W 445-458 (peptide)
chain: FASQLRKPRAPMRN
B49: YJL029C 360-373 (peptide)
chain: FLSYMSEPKYPSNE
B50: YDR451C 287-300 (peptide)
chain: FEDHHITPSKPGGQ
B51: YPL190C 573-586 (peptide)
chain: GAPPLPVPNGPAVG
B52: YIL156W 498-511 (peptide)
chain: EPPSWKPPDLPIRL
B53: YLR106C 2903-2916 (peptide)
chain: GLLLLFVPDSPYDP
B54: YGR062C 88-101 (peptide)
chain: ELRKLVQPITPIIK

For the experiment, the target named is T1, Myo5 SH3 (MYO5_YEAST), Q04439.
T1 chain: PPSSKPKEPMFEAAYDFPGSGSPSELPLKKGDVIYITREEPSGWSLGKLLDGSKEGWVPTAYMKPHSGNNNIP
Put plainly: SPOT array.
In turn, B1 registered a normalised SPOT signal, Boehringer light units (BLU); mean over the file's lines of this peptide of 238.

As to B2, the normalised SPOT signal, Boehringer light units (BLU); mean over the file's lines of this peptide is 146.

As for B3, the normalised SPOT signal, Boehringer light units (BLU); mean over the file's lines of this peptide turned out to be 118.

As to B4, the normalised SPOT signal, Boehringer light units (BLU); mean over the file's lines of this peptide was found to be 452.

In the case of B5, the normalised SPOT signal, Boehringer light units (BLU); mean over the file's lines of this peptide was determined as 57.4.

B6 came in with a normalised SPOT signal, Boehringer light units (BLU); mean over the file's lines of this peptide of 55.4.

With B7, the normalised SPOT signal, Boehringer light units (BLU); mean over the file's lines of this peptide came out at 6490.

The molecule B8 displayed a normalised SPOT signal, Boehringer light units (BLU); mean over the file's lines of this peptide of 61.8.

For B9, the normalised SPOT signal, Boehringer light units (BLU); mean over the file's lines of this peptide worked out at 966.

Molecule B10 returned a normalised SPOT signal, Boehringer light units (BLU); mean over the file's lines of this peptide of 150.

On to B11, for which the normalised SPOT signal, Boehringer light units (BLU); mean over the file's lines of this peptide turned out to be 1470.

B12: the normalised SPOT signal, Boehringer light units (BLU); mean over the file's lines of this peptide came to 468.

With B13, the normalised SPOT signal, Boehringer light units (BLU); mean over the file's lines of this peptide was 169.

Molecule B14 registered a normalised SPOT signal, Boehringer light units (BLU); mean over the file's lines of this peptide of 310.

B15 registered a normalised SPOT signal, Boehringer light units (BLU); mean over the file's lines of this peptide of 75.3.

B16 had a normalised SPOT signal, Boehringer light units (BLU); mean over the file's lines of this peptide of 0.

Regarding B17, the normalised SPOT signal, Boehringer light units (BLU); mean over the file's lines of this peptide is 397.

The molecule B18 yielded a normalised SPOT signal, Boehringer light units (BLU); mean over the file's lines of this peptide of 62.7.

B19 registered a normalised SPOT signal, Boehringer light units (BLU); mean over the file's lines of this peptide of 121.

The molecule B20 showed a normalised SPOT signal, Boehringer light units (BLU); mean over the file's lines of this peptide of 158.

In the case of B21, the normalised SPOT signal, Boehringer light units (BLU); mean over the file's lines of this peptide amounted to 116.

Consider B22, for which the normalised SPOT signal, Boehringer light units (BLU); mean over the file's lines of this peptide came to 722.

In turn, B23 gave a normalised SPOT signal, Boehringer light units (BLU); mean over the file's lines of this peptide of 111.

Molecule B24 showed a normalised SPOT signal, Boehringer light units (BLU); mean over the file's lines of this peptide of 242.

As for B25, the normalised SPOT signal, Boehringer light units (BLU); mean over the file's lines of this peptide came to 122.

B26: the normalised SPOT signal, Boehringer light units (BLU); mean over the file's lines of this peptide was 294.

B27: the normalised SPOT signal, Boehringer light units (BLU); mean over the file's lines of this peptide turned out to be 106.

B28 showed a normalised SPOT signal, Boehringer light units (BLU); mean over the file's lines of this peptide of 153.

On to B29, for which the normalised SPOT signal, Boehringer light units (BLU); mean over the file's lines of this peptide worked out at 356.

In the case of B30, the normalised SPOT signal, Boehringer light units (BLU); mean over the file's lines of this peptide was 257.

The molecule B31 displayed a normalised SPOT signal, Boehringer light units (BLU); mean over the file's lines of this peptide of 202.

On to B32, for which the normalised SPOT signal, Boehringer light units (BLU); mean over the file's lines of this peptide is 70.2.

On to B33, for which the normalised SPOT signal, Boehringer light units (BLU); mean over the file's lines of this peptide amounted to 279.

Consider B34, for which the normalised SPOT signal, Boehringer light units (BLU); mean over the file's lines of this peptide is 130.

Molecule B35 came in with a normalised SPOT signal, Boehringer light units (BLU); mean over the file's lines of this peptide of 508.

Molecule B36 displayed a normalised SPOT signal, Boehringer light units (BLU); mean over the file's lines of this peptide of 167.

Regarding B37, the normalised SPOT signal, Boehringer light units (BLU); mean over the file's lines of this peptide was 830.

As for B38, the normalised SPOT signal, Boehringer light units (BLU); mean over the file's lines of this peptide worked out at 122.

B39 had a normalised SPOT signal, Boehringer light units (BLU); mean over the file's lines of this peptide of 760.

Turning to B40, the normalised SPOT signal, Boehringer light units (BLU); mean over the file's lines of this peptide was 160.

For B41, the normalised SPOT signal, Boehringer light units (BLU); mean over the file's lines of this peptide came to 75.8.

With B42, the normalised SPOT signal, Boehringer light units (BLU); mean over the file's lines of this peptide amounted to 2770.

With B43, the normalised SPOT signal, Boehringer light units (BLU); mean over the file's lines of this peptide is 215.

As to B44, the normalised SPOT signal, Boehringer light units (BLU); mean over the file's lines of this peptide came out at 154.

In turn, B45 showed a normalised SPOT signal, Boehringer light units (BLU); mean over the file's lines of this peptide of 1340.

Consider B46, for which the normalised SPOT signal, Boehringer light units (BLU); mean over the file's lines of this peptide worked out at 137.

Consider B47, for which the normalised SPOT signal, Boehringer light units (BLU); mean over the file's lines of this peptide was 271.

For B48, the normalised SPOT signal, Boehringer light units (BLU); mean over the file's lines of this peptide came to 460.

B49 registered a normalised SPOT signal, Boehringer light units (BLU); mean over the file's lines of this peptide of 142.

As for B50, the normalised SPOT signal, Boehringer light units (BLU); mean over the file's lines of this peptide was determined as 67.9.

Consider B51, for which the normalised SPOT signal, Boehringer light units (BLU); mean over the file's lines of this peptide was determined as 222.

B52 came in with a normalised SPOT signal, Boehringer light units (BLU); mean over the file's lines of this peptide of 87000.

B53: the normalised SPOT signal, Boehringer light units (BLU); mean over the file's lines of this peptide came to 21.6.

B54 returned a normalised SPOT signal, Boehringer light units (BLU); mean over the file's lines of this peptide of 170.

The values above are taken from PMC314469, “Protein Interaction Networks by Proteome Peptide Scanning” (PLoS Biology, 2004).
